Laboratory results taken from article PMC9198058.

Tests used:
[1] = target: Catalytically inactive recombinant S195A thrombin mutant (UniProt P00734); assay: other fluorescence titration
[2] = target: Nα-fluoresceinated hirugen ([F]-hirugen); assay: other fluorescence titration

Substance | increase of [F]-hirugen fluorescence on displacement [1] [%] | Kd [2] [nM]
Hirugen (54…*LQ65) (peptide) | 65 | –
Catalytically inactive recombinant S195A thrombin mutant (from UniProt P00734 44-622) (enzyme) | – | 30
